From publication PMC6650902

Molecular target: TAF complex (TFIIDΔTBP) (S. cerevisiae) (UniProt P46677)

topoisomerase I assay on pDrive/RPS5: linking number change (ΔLk) with TAFs and TBP mixed in equimolar amounts before the plasmid (TAF complex alone +1.91): 0.48
Substance: TATA-box binding protein (TBP), recombinant (from UniProt P13393 1-240) (natural protein)
